Experimental data published in the Human Domainome abundance scans (Beltran et al. 2025).
± gives the uncertainty stated by the source.

B1: Syntaxin-binding protein 4, residues 493 to 538; numbered along this chain, Q6ZWJ1 (parent)
chain: LDMDCLPYGWEEAYTADGIKYFINHVTQTTSWIHPVMSVLNLSRSE

Variants of: B1
Test: abundance fitness (aPCA) (normalised: wild type 0, dead -1); higher = more abundant; growth selection in yeast, the domain comes from the species named
Conditions: Homo sapiens

Variant | abundance fitness
M3I | -0.425 ± 0.11
M3F | -0.069 ± 0.13
M3Q | 0.065 ± 0.11
M3E | 0.144 ± 0.088
M3D | -0.103 ± 0.096
M3L | -0.036 ± 0.08
P35I | -0.82 ± 0.16
P35Q | -0.72 ± 0.14
P35C | -1.06 ± 0.21
P35W | -0.775 ± 0.16
P35H | -0.83 ± 0.15
P35N | -0.862 ± 0.18
P35Y | -0.369 ± 0.15
P35T | -0.686 ± 0.16
V36N | 0.571 ± 0.14
V36S | 0.659 ± 0.084
V36Y | -0.254 ± 0.13
V36A | 0.59 ± 0.083
V36R | 0.712 ± 0.081
V36G | 0.528 ± 0.082
V36D | 0.168 ± 0.11
V36T | 0.526 ± 0.095
V36L | -0.035 ± 0.082
V36H | 0.224 ± 0.14
V36E | 0.44 ± 0.093

Variant | abundance fitness
N41R | -0.493 ± 0.096
N41C | -0.236 ± 0.14
N41Q | -0.514 ± 0.14
N41G | -0.215 ± 0.083
N41P | -0.38 ± 0.11
N41F | -1.02 ± 0.2
N41M | -0.403 ± 0.11
C5W | -0.533 ± 0.1
C5S | 0.142 ± 0.081
C5K | 0.076 ± 0.098
C5H | -0.06 ± 0.14
C5V | -0.155 ± 0.085
C5G | -0.04 ± 0.076
C5N | -0.254 ± 0.12
D17F | -0.942 ± 0.14
D17W | -0.835 ± 0.1
D17S | -0.625 ± 0.09
R44H | -0.287 ± 0.15
R44S | 0.096 ± 0.087
R44Y | -0.109 ± 0.14
R44G | 0.377 ± 0.077
R44F | -0.881 ± 0.18
R44T | -0.285 ± 0.13
R44M | -0.292 ± 0.15
R44Q | -0.063 ± 0.13

Variant | abundance fitness
R44L | -0.512 ± 0.11
R44C | 0.016 ± 0.11
R44E | 0.376 ± 0.11
T29M | -0.789 ± 0.19
T29F | -0.674 ± 0.12
T29N | -0.759 ± 0.14
T29W | -0.556 ± 0.47
T29S | -0.475 ± 0.098
T29R | -0.594 ± 0.14
T29D | -0.777 ± 0.17
L6A | -0.707 ± 0.094
L6S | -0.816 ± 0.1
L6T | -0.737 ± 0.12
L6Q | -0.817 ± 0.14
L6W | -0.922 ± 0.11
L6V | -0.511 ± 0.089
T15H | -0.881 ± 0.16
T15G | -0.561 ± 0.082
T15A | -0.801 ± 0.1
T15C | -1 ± 0.14
T15K | -0.938 ± 0.13
T15R | -0.698 ± 0.077
T15E | -0.859 ± 0.16
D4A | -0.561 ± 0.085
D4C | -0.354 ± 0.11

Variant | abundance fitness
D4Y | -0.863 ± 0.15
D4T | -0.535 ± 0.11
D4P | -0.511 ± 0.13
D4K | -0.543 ± 0.11
D4V | -0.766 ± 0.092
P7M | -0.793 ± 0.12
P7I | -0.984 ± 0.17
Y14E | -0.513 ± 0.11
Y14I | -0.856 ± 0.12
Y14D | -0.976 ± 0.14
Y14Q | -0.305 ± 0.1
W10T | -0.869 ± 0.11
W10A | -0.667 ± 0.087
W10I | -0.596 ± 0.13
W10V | -0.651 ± 0.087
W10P | -0.741 ± 0.1
W10C | -1.01 ± 0.14
V26R | -0.096 ± 0.08
V26Q | -0.004 ± 0.2
V26A | 0.058 ± 0.094
V26I | -0.038 ± 0.094
V26M | -0.29 ± 0.11
V26H | 0.137 ± 0.14
A16P | -0.349 ± 0.096
A16V | -0.57 ± 0.095

Variant | abundance fitness
A16H | -0.342 ± 0.091
A16F | -0.781 ± 0.1
A16W | -0.901 ± 0.17
A16G | -0.445 ± 0.095
A16L | -0.649 ± 0.09
A16E | -0.118 ± 0.15
A16T | -0.408 ± 0.088
A16K | 0.211 ± 0.098
A16C | -0.555 ± 0.096
L1M | 0.148 ± 0.13
L1F | -0.163 ± 0.17
L1E | 0.068 ± 0.21
L1K | 0.331 ± 0.23
E11G | -0.827 ± 0.082
E11K | -0.535 ± 0.11
E11L | -0.771 ± 0.089
E11V | -0.531 ± 0.083
E11S | -0.433 ± 0.081
E46C | 0.486 ± 0.49
E46N | -0.139 ± 0.31
E46T | -0.143 ± 0.24
E46V | -0.365 ± 0.19
I19Q | 0.7 ± 0.093
I19K | 0.791 ± 0.12
I19T | 0.234 ± 0.094

Variant | abundance fitness
I19N | 0.65 ± 0.12
I19C | 0.348 ± 0.1
I19R | 0.428 ± 0.074
I19F | -0.352 ± 0.12
I19M | 0.313 ± 0.091
I19Y | -0.034 ± 0.16
I19P | -0.761 ± 0.14
Y8M | -0.292 ± 0.099
Y8A | 0.198 ± 0.081
Y8H | -0.094 ± 0.098
Y8C | -0.425 ± 0.093
T27M | 0.168 ± 0.1
T27H | 0.176 ± 0.16
T27V | -0.872 ± 0.1
T27S | -0.348 ± 0.1
T27I | -0.814 ± 0.25
T27R | -0.234 ± 0.081
T27G | -0.248 ± 0.079
T27P | -0.772 ± 0.14
T27Y | 0.394 ± 0.15
T27D | -0.127 ± 0.16
T27L | 0.644 ± 0.091
T27W | -0.179 ± 0.1
E12N | -0.765 ± 0.19
E12V | 0.12 ± 0.08
